{
  "source": "patent US20060088524A1",
  "about": "(BOARD OF TRUSTEES OF THE UNIVERSITY OF ILLINOIS, published 2006)",
  "key": {"[1]": {"target": "TF:VIIa complex (1:1 complex of rTF and factor VIIa on a phospholipid surface) (UniProt P08709)"}, "[2]": {"target": "T1, recombinant human tissue factor (rTF), membrane-anchored, HPC4-tagged, cytoplasmic domain truncated", "T1 chain": "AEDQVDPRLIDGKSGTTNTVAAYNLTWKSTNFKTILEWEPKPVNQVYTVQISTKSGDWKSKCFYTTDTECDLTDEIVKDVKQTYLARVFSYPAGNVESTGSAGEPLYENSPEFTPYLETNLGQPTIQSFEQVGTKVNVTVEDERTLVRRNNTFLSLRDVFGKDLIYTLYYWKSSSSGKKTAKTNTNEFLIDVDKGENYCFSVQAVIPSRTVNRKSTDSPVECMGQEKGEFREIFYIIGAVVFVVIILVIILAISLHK"}},
  "data": [
    {"molecule": "coagulation factor X", "values": [
      {"measurement": "Km for factor X activation; TF-Nanodiscs, 10% PS, 90% PC", "setting": "[1]", "value": 0.132, "unit": "µM"},
      {"measurement": "Km for factor X activation; TF-Nanodiscs, 20% PS, 80% PC", "setting": "[1]", "value": 0.0686, "unit": "µM"},
      {"measurement": "Km for factor X activation; TF-Nanodiscs, 30% PS, 70% PC", "setting": "[1]", "value": 0.0452, "unit": "µM"},
      {"measurement": "Km for factor X activation; TF-liposomes, 20% PS, 80% PC", "setting": "[1]", "value": 0.0202, "unit": "µM"},
      {"measurement": "Km, app for factor X activation; rTF in PCPS vesicles", "setting": "[1]", "value": 0.0202, "unit": "µM"},
      {"measurement": "Km, app for factor X activation; rTF-PCPS-nanoscale discs", "setting": "[1]", "value": 0.0686, "unit": "µM"}
    ]},
    {"molecule": "coagulation factor VIIa (protein) ANAFLEELRPGSLERECKEEQCSFEEAREIFKDAERTKLFWISYSDGDQCASSPCQNGGSCKDQLQSYICFCLPAFEGRNCETHKDDQLICVNENGGCEQYCSDHTGTKRSCRCHEGYSLLADGVSCTPTVEYPCGKIPILEKRNASKPQGRIVGGKVCPKGECPWQVLLLVNGAQLCGGTLINTIWVVSAAHCFDKIKNWRNLIAVLGEHDLSEHDGDEQSRRVAQVIIPSTYVPGTTNHDIALLRLHQPVVLTDHVVPLCLPERTFSERTLAFVRFSLVSGWGQLLDRGATALELMVLNVPRLMTQDCLQQSRKVGDSPNITEYMFCAGYSDGSKDSCKGDSGGPHATHYRGTWYLTGIVSWGQGCATVGHFGVYTRVSQYIEWLQKLMRSEPRPGVLLRAPFP", "values": [
      {"measurement": "procoagulant activity (plasma clotting) of TF-containing nanoscale discs", "setting": "[2]", "value": "the resultant discs exhibit strong procoagulant activity"}
    ]}
  ]
}
